Data on 54 molecules can be found in PMC314469, “Protein Interaction Networks by Proteome Peptide Scanning” (PLoS Biology, 2004).

The chains are these.
T1: Abp1 SH3 (ABP1_YEAST), P15891
T1 chain: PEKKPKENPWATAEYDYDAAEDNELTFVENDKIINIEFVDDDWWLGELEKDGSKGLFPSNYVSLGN

B1: YIL038C 384-397 (peptide)
chain: GATTLKPATLPAKP
B2: YDR342C 45-58 (peptide)
chain: GEEHEPVVEIPKRP
B3: YLL021W 576-589 (peptide)
chain: FLNDVEEEESPVKP
B4: YPR099C 84-97 (peptide)
chain: FLHGNTNAPTPLRP
B5: YDR080W 297-309 (peptide)
chain: FNVQDVRPDLFRP
B6: YLR190W 87-99 (peptide)
chain: FQFLNNTPKMLKP
B7: YNL314W 80-92 (peptide)
chain: GALLDEAPEHPRP
B8: YAR002W 429-441 (peptide)
chain: FTNLQAKPLVGKP
B9: YLR006C 159-172 (peptide)
chain: FPPNEAPMLSPQRP
B10: YDL073W 594-607 (peptide)
chain: FNGNSRLMMIPKKP
B11: YOL107W 265-277 (peptide)
chain: FQLIYFFPDLIKP
B12: YKR093W 407-420 (peptide)
chain: FVYPFIRRYTPLKP
B13: YER119C 18-30 (peptide)
chain: GAGILAMPYAFKP
B14: YLL018C 442-454 (peptide)
chain: FYILDKFPLEIRP
B15: YDL046W 25-37 (peptide)
chain: GIFNALPPPNTKP
B16: YPL089C 527-539 (peptide)
chain: FPDWSMGPNSAKP
B17: YPR022C 372-384 (peptide)
chain: FSDKNTIPPNEKP
B18: YER040W 639-651 (peptide)
chain: FNTPVDSPSVSRP
B19: YHR103W 279-291 (peptide)
chain: FNVPSQKPLNSKP
B20: YHR031C 65-78 (peptide)
chain: GDEGNRNITAPPRP
B21: YDL150W 307-319 (peptide)
chain: FQLPTRLPAFERP
B22: YIL156W 221-234 (peptide)
chain: FREPERKTSVPVRP
B23: YOR229W 116-129 (peptide)
chain: GDAFQDVEGKPLRP
B24: YBR012W-A 198-211 (peptide)
chain: GGIIPTVNGKPVRP
B25: YFR037C 187-199 (peptide)
chain: FQVVLDTPQGLKP
B26: YML104C 41-53 (peptide)
chain: FVFFKSLPDLPKP
B27: YKL165C 94-106 (peptide)
chain: GISHTRMPTESRP
B28: YOR316C 398-410 (peptide)
chain: GDHLQNDPLSLRP
B29: YIR032C 164-177 (peptide)
chain: FSVLIYESLDPDRP
B30: YHR171W 136-148 (peptide)
chain: FYYWLGVPSFQRP
B31: YKR051W 189-202 (peptide)
chain: FWKSLYPELTPYKP
B32: YLL021W 560-573 (peptide)
chain: GINMKKGFINPRKP
B33: YER129W 662-674 (peptide)
chain: FSGVTNQPSPIRP
B34: YIL154C 237-250 (peptide)
chain: GDTVYIVHWEPSKP
B35: YDL226C 208-221 (peptide)
chain: GGKYQGFGSTPAKP
B36: YGL135W 49-61 (peptide)
chain: FSGSLKLPNSPRP
B37: YOR267C 238-251 (peptide)
chain: GATFAVKEFRPRKP
B38: YBL089W 68-80 (peptide)
chain: GAGVLAMPFAFKP
B39: YOL138C 597-610 (peptide)
chain: FSHTGLTSFTPERP
B40: YAL017W 277-290 (peptide)
chain: FRGDYGNNISPERP
B41: YMR228W 229-241 (peptide)
chain: FSAAEIWPTKGKP
B42: YIL130W 103-116 (peptide)
chain: GASTIPASNNPSKP
B43: YOR317W 178-190 (peptide)
chain: FTDNSLLPSLIKP
B44: YLR454W 1837-1849 (peptide)
chain: GDKYQVDPKTSKP
B45: YBR082C 52-65 (peptide)
chain: FLSIHFPTDYPFKP
B46: YGL140C 277-289 (peptide)
chain: FTYAYVSPTKLKP
B47: YML118W 352-364 (peptide)
chain: GEGHSDQPQNPKP
B48: YPL272C 132-144 (peptide)
chain: FNKTRFVPGSNKP
B49: YPL231W 188-201 (peptide)
chain: GDLGKEFGTTPEKP
B50: YKL077W 64-77 (peptide)
chain: FSEKPEETPNPLKP
B51: YOR065W 294-307 (peptide)
chain: GIKTRKFVFNPPKP
B52: YML042W 214-227 (peptide)
chain: FSLMFNTSRLPGKP
B53: YDL118W 75-88 (peptide)
chain: GSNATADVSPPKKP
B54: YDR305C 168-180 (peptide)
chain: GDELSQGPNVLKP

This experiment has as its target T1, Abp1 SH3 (ABP1_YEAST), P15891. As to the kind of experiment: SPOT array.
Turning to B1, the normalised SPOT signal, Boehringer light units (BLU); mean over the file's lines of this peptide is 160.

Molecule B2 displayed a normalised SPOT signal, Boehringer light units (BLU); mean over the file's lines of this peptide of 70.9. For the molecule B3, the normalised SPOT signal, Boehringer light units (BLU); mean over the file's lines of this peptide amounted to 123.

With B4, the normalised SPOT signal, Boehringer light units (BLU); mean over the file's lines of this peptide was 63. Molecule B5 had a normalised SPOT signal, Boehringer light units (BLU); mean over the file's lines of this peptide of 100.

In turn, B6 yielded a normalised SPOT signal, Boehringer light units (BLU); mean over the file's lines of this peptide of 246.

On to B7, for which the normalised SPOT signal, Boehringer light units (BLU); mean over the file's lines of this peptide was 82.3.

As to B8, the normalised SPOT signal, Boehringer light units (BLU); mean over the file's lines of this peptide was 4290.

The molecule B9 registered a normalised SPOT signal, Boehringer light units (BLU); mean over the file's lines of this peptide of 35. The molecule B10 registered a normalised SPOT signal, Boehringer light units (BLU); mean over the file's lines of this peptide of 4150.

On to B11, for which the normalised SPOT signal, Boehringer light units (BLU); mean over the file's lines of this peptide was 28.8. Molecule B12 registered a normalised SPOT signal, Boehringer light units (BLU); mean over the file's lines of this peptide of 125.

Molecule B13 displayed a normalised SPOT signal, Boehringer light units (BLU); mean over the file's lines of this peptide of 62.2. B14 registered a normalised SPOT signal, Boehringer light units (BLU); mean over the file's lines of this peptide of 20. For B15, the normalised SPOT signal, Boehringer light units (BLU); mean over the file's lines of this peptide turned out to be 136. Take B16: the normalised SPOT signal, Boehringer light units (BLU); mean over the file's lines of this peptide was found to be 238. For B17, the normalised SPOT signal, Boehringer light units (BLU); mean over the file's lines of this peptide was determined as 147. The same measure for B18: 94.4; for B19: 955; for B20: 77.6. Regarding B21, the normalised SPOT signal, Boehringer light units (BLU); mean over the file's lines of this peptide came to 353.

In the case of B22, the normalised SPOT signal, Boehringer light units (BLU); mean over the file's lines of this peptide came out at 773.

B23 returned a normalised SPOT signal, Boehringer light units (BLU); mean over the file's lines of this peptide of 51.6. The same measure for B24: 430; for B25: 103.

In the case of B26, the normalised SPOT signal, Boehringer light units (BLU); mean over the file's lines of this peptide was 196. Molecule B27 returned a normalised SPOT signal, Boehringer light units (BLU); mean over the file's lines of this peptide of 80.

As for B28, the normalised SPOT signal, Boehringer light units (BLU); mean over the file's lines of this peptide was 78.1.

In turn, B29 showed a normalised SPOT signal, Boehringer light units (BLU); mean over the file's lines of this peptide of 143. Turning to B30, the normalised SPOT signal, Boehringer light units (BLU); mean over the file's lines of this peptide was 97. Consider B31, for which the normalised SPOT signal, Boehringer light units (BLU); mean over the file's lines of this peptide is 97.4.

B32 displayed a normalised SPOT signal, Boehringer light units (BLU); mean over the file's lines of this peptide of 210. For B33, the normalised SPOT signal, Boehringer light units (BLU); mean over the file's lines of this peptide is 67.2. B34 yielded a normalised SPOT signal, Boehringer light units (BLU); mean over the file's lines of this peptide of 48.

Molecule B35 yielded a normalised SPOT signal, Boehringer light units (BLU); mean over the file's lines of this peptide of 56.7. In turn, B36 had a normalised SPOT signal, Boehringer light units (BLU); mean over the file's lines of this peptide of 478. As for B37, the normalised SPOT signal, Boehringer light units (BLU); mean over the file's lines of this peptide is 1130.

Consider B38, for which the normalised SPOT signal, Boehringer light units (BLU); mean over the file's lines of this peptide came to 79.6. In the case of B39, the normalised SPOT signal, Boehringer light units (BLU); mean over the file's lines of this peptide amounted to 92. The result for B40 reads 106; that for B41, 158. Consider B42, for which the normalised SPOT signal, Boehringer light units (BLU); mean over the file's lines of this peptide is 90.9. B43: the normalised SPOT signal, Boehringer light units (BLU); mean over the file's lines of this peptide worked out at 217. B44 yielded a normalised SPOT signal, Boehringer light units (BLU); mean over the file's lines of this peptide of 51.2. B45 yielded a normalised SPOT signal, Boehringer light units (BLU); mean over the file's lines of this peptide of 95.8. In the case of B46, the normalised SPOT signal, Boehringer light units (BLU); mean over the file's lines of this peptide was 170. B47 returned a normalised SPOT signal, Boehringer light units (BLU); mean over the file's lines of this peptide of 13.4.

Molecule B48 came in with a normalised SPOT signal, Boehringer light units (BLU); mean over the file's lines of this peptide of 831.

B49 gave a normalised SPOT signal, Boehringer light units (BLU); mean over the file's lines of this peptide of 121. The result for B50 reads 170.

In turn, B51 displayed a normalised SPOT signal, Boehringer light units (BLU); mean over the file's lines of this peptide of 57.2. The molecule B52 registered a normalised SPOT signal, Boehringer light units (BLU); mean over the file's lines of this peptide of 2180.

Take B53: the normalised SPOT signal, Boehringer light units (BLU); mean over the file's lines of this peptide is 67.3. Consider B54, for which the normalised SPOT signal, Boehringer light units (BLU); mean over the file's lines of this peptide is 67.5.
